Results: publication PMC10517255, “Cysteine Enrichment Mediates Co-Option of Uricase in Reptilian Skin and Transition to Uricotelism” (Molecular Biology and Evolution, 2023)
Where a chain is given by its changes, count along the chain named. Each block holds one molecule with its values, some of them ahead of it.

Columns and labels:
[1] = target: T1, GgUox (Gallus gallus, UniProt A0A8V0ZED1, Y230H); experiment: uricase activity, specific activity; format: biochemical; conditions: activity relative to wild type
T1 construct: gene LOC101747367; uricase-like CDS in pET28 (NheI/XhoI), N-terminal His-tag with thrombin site (uncleaved for crystals)
T1 sequence (A0A8V0ZED1 1-320 Y230H): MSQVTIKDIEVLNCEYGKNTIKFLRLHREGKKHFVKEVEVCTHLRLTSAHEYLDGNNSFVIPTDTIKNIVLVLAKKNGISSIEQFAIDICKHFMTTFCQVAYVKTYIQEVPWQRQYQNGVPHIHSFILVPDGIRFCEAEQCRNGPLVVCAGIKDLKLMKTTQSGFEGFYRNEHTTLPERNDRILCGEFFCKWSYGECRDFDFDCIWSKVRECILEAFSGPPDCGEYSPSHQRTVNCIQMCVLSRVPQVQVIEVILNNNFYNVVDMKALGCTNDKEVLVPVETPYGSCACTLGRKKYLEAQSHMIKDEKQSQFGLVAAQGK

[2] = target: T2, DrUox (Danio rerio, UniProt Q6DG85); experiment: stopped flow, single turnover, diode array; format: biochemical; conditions: 35 μM enzyme, 25 μM urate, 100 mM potassium phosphate pH 7.6, 25°C
T2 construct: gene uox; enzyme described in Marchetti et al. 2016; tetrameric, about 150 kDa
T2 sequence (Q6DG85 1-298): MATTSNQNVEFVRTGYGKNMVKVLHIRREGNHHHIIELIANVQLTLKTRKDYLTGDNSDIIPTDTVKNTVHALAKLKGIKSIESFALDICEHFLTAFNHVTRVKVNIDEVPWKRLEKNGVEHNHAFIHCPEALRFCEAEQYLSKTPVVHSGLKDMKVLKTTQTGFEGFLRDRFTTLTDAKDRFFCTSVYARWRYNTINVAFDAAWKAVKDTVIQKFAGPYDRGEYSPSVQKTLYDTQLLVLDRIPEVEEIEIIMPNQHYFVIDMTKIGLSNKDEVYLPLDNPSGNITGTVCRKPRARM

[3] = target: T3, GgUox (Gallus gallus, UniProt A0A8V0ZED1); experiment: X-ray crystallography, […]-2.[…] Å, reduced and H2O2-oxidized crystals; format: binding; conditions: active site at dimer interface; uncleaved His-tag; space groups P2_12_12_1 and C222_1
T3 construct: gene LOC101747367; uricase-like CDS in pET28 (NheI/XhoI), N-terminal His-tag with thrombin site (uncleaved for crystals)
T3 sequence (A0A8V0ZED1 1-320): T1 sequence (A0A8V0ZED1 1-320 Y230H) with H230Y

[4] = target: Gallus gallus Uox (cysteine-rich urate oxidase) (Gallus gallus); experiment: atomic force microscopy; particle volume of the enzyme on mica, native or pre-incubated with βME, 100 nM protein in 4 mM HEPES pH 7.4, 10 mM NaCl, 2 mM MgCl2, imaged in air, tapping mode
[5] = target: Gallus gallus Uox (cysteine-rich urate oxidase) (Gallus gallus); experiment: SEC; purified GgUox, single peak (supplementary fig. S4B)
[6] = target: Gallus gallus Uox (cysteine-rich urate oxidase) (Gallus gallus); experiment: crystal structure; GgUox with uncleaved N-terminal His tag in complex with the inhibitor 8-azaxanthine; space groups C222_(1) and P2_(1)2_(1)2_(1); reduced, and oxidised by a 100 mM H2O2 soak for 15 min
[7] = substrate: O=c1[nH]c(=O)c2[nH]c(=O)[nH]c2[nH]1; experiment: purified protein; format: biochemical, Gallus gallus; conditions: 100 mM potassium phosphate pH 7.6, 25°C, 4.1 µM GgUox, 1 µM HIUase, 2-140 μM urate
[8] = target: the molecule itself; experiment: atomic force microscopy; particle volume of the enzyme on mica, native or pre-incubated with βME, 100 nM protein in 4 mM HEPES pH 7.4, 10 mM NaCl, 2 mM MgCl2, imaged in air, tapping mode

Molecule: O=c1[nH]c(=O)c2[nH]c(=O)[nH]c2[nH]1 [uric acid]
uricase activity, specific activity [1]: we mutated the tyrosine in the active site of GgUox to either histidine (Y230H) | stopped flow, single turnover, diode array [2]: the same experiment was carried out with DrUox for comparison

Molecule: O=c1[nH]c(=O)c2nn[nH]c2[nH]1 [8-azaxanthine]
X-ray crystallography, 1.7-2.1 Å, reduced and H2O2-oxidized crystals [3]: We crystallized GgUox in complex with its AZA inhibitor in two space groups

stoichiometry N [4]: 4 | stoichiometry N [5]: 4 | stoichiometry N [6]: 4
Molecule: Gallus gallus Uox (cysteine-rich urate oxidase) (enzyme)

B1: GgUox (Gallus gallus) (protein)
chain: T1 sequence (A0A8V0ZED1 1-320 Y230H) with H230Y
notes: uricase-like CDS in pET28 (NheI/XhoI), N-terminal His-tag with thrombin site (uncleaved for crystals)
Km [7]: 12.5 µM | kcat [7]: 0.03 s⁻¹

B2: Danio rerio Uox (enzyme, UniProt Q6DG85 1-298, looked up)
chain: T2 sequence (Q6DG85 1-298)
notes: Danio rerio urate oxidase (DrUox), as in Marchetti et al. 2016; also called DrUox; uricase
stoichiometry N [8]: 4
